From article PMC11242853, “The Antimicrobial Activity of Human Defensins at Physiological Non-Permeabilizing Concentrations Is Caused by the Inhibition of the Plasma Membrane H^+-ATPases” (International Journal of Molecular Sciences, 2024)

Legend:
[1] = test system: Pseudomonas aeruginosa PAO1; assay: Antimicrobial spread-plate (CFU) killing assay, P. aeruginosa; type: cell-based
Description: To determine whether the above microbicidal concentrations exert a permeabilizing effect on fungal and bacterial membranes, the influx of the fluorescent nucleic acid-binding dye propidium iodide (PI) in cells incubated with the peptides was assessed. In cells, dye uptake reflects membrane permeabilization, as PI itself cannot permeate through an intact phospholipid bilayer. […] To select an antimicrobial but non-permeabilizing concentration of each peptide for further assays, we defined as a non-permeabilizing inhibitory concentration (NPIC) the antimicrobial inhibitory concentration (≤10% viable cells) that permeabilized ≤ 10% of cells incubated (90 min at 37 °C) in buffer solution.
Microbial susceptibility to the peptides was determined in a spread-plate assay as described previously. Briefly, cell suspensions (10^6 cells/mL) in Tris buffer (10 mM Tris-HCl, pH 7.4) were incubated for 90 min at 37 °C with 2-fold serial peptide dilutions. Peptide concentrations ranged from 0 to 2 μM. After incubation, the number of viable cells was determined by plating aliquots (100 μL) in duplicate on plates (SDA for C. albicans, TSA for P. aeruginosa, and M17G agarified medium for L. lactis) that had been dried for 30 min at room temperature in a laminar flow hood. Plates were incubated for 24–48 h at 30 °C (C. albicans and L. lactis) or 24 h at 37 °C (P. aeruginosa). Dilutions yielding 50–200 colonies were counted. Cell viability values, expressed as colony-forming units (CFUs), were calculated relative to the incubation without added peptides and represent the means ± standard deviation (SD) from duplicates of three independent experiments. For inhibition assays, unless otherwise noted, cell suspensions were preincubated (15 min at 37 °C) with the appropriate inhibitor prior to the addition of peptides, but the inhibitor was present throughout the incubation period with the peptide (90 min at 37 °C). Other specific experimental conditions are described as appropriate. […]

C. albicans cells [2] = assay: Oxygen consumption measurement (polarographic), C. albicans; type: cell-based, Candida albicans; conditions: after 30 min; defensins 2 x NPIC, human lactoferrin 20 μM, piericidin A 32 µM; preincubated 15 min at 37 °C; untreated cells 94% ± 2%; means ± SD, three experiments
Description: (§1) Oxygen consumption by C. albicans and P. aeruginosa cells was determined by polarographically using a biological oxygen monitor (dual digital-model 20; Rank Brothers Ltd., Cambridge, UK) at 25 °C. The apparatus consisted of a twin water-jacketed closed sample chamber, which enabled a control experiment to be conducted concurrently. The cells were grown to mid-log phase in SDB (C. albicans) or TSB (P. aeruginosa), washed twice in Tris buffer, and resuspended in the same buffer. Cell suspensions (approximately 10^7 cells/mL) were preincubated with defensins (2 x NPIC), human lactoferrin (20 μM), or piericidin A (32 μM) for 15 min at 37 °C. Oxygen consumption was recorded at 5-min intervals for a period of 30 min. Three independent experiments were performed, and the data are means ± SD.

P. aeruginosa cells = assay: Oxygen consumption measurement (polarographic), P. aeruginosa; type: cell-based, Pseudomonas aeruginosa; conditions: after 30 min; defensins 2 x NPIC, human lactoferrin 20 μM, piericidin A 32 µM; preincubated 15 min at 37 °C; untreated cells 83% ± 2%; means ± SD, three experiments
Description: as §1

C. albicans cells [3] = assay: Total cellular ATP (BacTiter-Glo); type: cell-based, Candida albicans; conditions: defensins at NPIC, human lactoferrin 5 μM, BM2 peptide 0.25 μM; 10^6 cells/mL; BacTiter-Glo luminescence
Description: Total ATP was measured using the BacTiter-Glo^TM Microbial Cell Viability Assay (Promega Co., Madison, WI, USA) according to the manufacturer’s instructions. […] Aliquots (100 µL) were incubated (90 min at 37 °C) with human defensins (NPICs). Human lactoferrin (5 μM) or BM2 peptide (0.25 μM) was used as positive controls. One hundred microliters of the incubation mixture was transferred to an opaque 96-well plate, mixed with an equal volume of BacTiter-Glo^TM reagent, and incubated for 15 min in the dark. The reagent uses a thermostable luciferase to generate luminescence in an ATP-dependent manner. The emitted luminescence was detected using a Varioskan Flash multimode reader (Thermo Scientific, Waltham, MA, USA) with a 10 s shaking and 1 s integration time. A calibration curve was generated for each experiment with ATP standards ranging from 1 to 1000 nM. All assays were performed at least three times in duplicate.

Pma1p H^+-ATPase = conditions: Table 2; no reference given
Description: A whole-cell proton transport assay was used to evaluate the possible inhibition of the fungal Pma1p H^+-ATPase by defensins.
To measure proton pumping from Pma1p H^+-ATPase activity, a glucose-induced acid extrusion assay was performed as previously described with modifications. Briefly, cultures of C. albicans cells were grown to mid-log phase in SDB medium and washed twice in 100 mM Tris-HCl (pH 8.0). The cells were then resuspended in 50 mM KCl and maintained for 18 h at 4 °C to reduce metabolic activity to a minimum (starvation conditions). To determine external acidification, starved cells (approximately 10^7 cells/mL) were incubated for 15 min at 37 °C in the presence or absence of the defensins (2 x NPIC). Cells incubated with 20 µM human lactoferrin or 0.5 µM BM2 peptide were used as positive controls. The initial pH of the cell suspension was adjusted to approximately pH 6.8 with HCl, and glucose (final concentration of 2.5 mM) was immediately added to the cell suspension. The pH of the medium was recorded at 5-min intervals for 20 min using a SevenMulti S50-K pH meter (Mettler-Toledo, Greifensee, Switzerland) with a calibrated electrode (InLab 413, Mettler-Toledo) under constant stirring. Each experiment was repeated three times in an independent manner.

B1: human lactoferrin: Recombinant human apo-lactoferrin (hLf), 691 amino acid γ-core protein that inhibits microbial PM H+-ATPases; control (protein, UniProt P02788 20-710, looked up)
Lactotransferrin: GRRRSVQWCAVSQPEATKCFQWQRNMRKVRGPPVSCIKRDSPIQCIQAIAENRADAVTLDGGFIYEAGLAPYKLRPVAAEVYGTERQPRTHYYAVAVVKKGGSFQLNELQGLKSCHTGLRRTAGWNVPIGTLRPFLNWTGPPEPIEAAVARFFSASCVPGADKGQFPNLCRLCAGTGENKCAFSSQEPYFSYSGAFKCLRDGAGDVAFIRESTVFEDLSDEAERDEYELLCPDNTRKPVDKFKDCHLARVPSHAVVARSVNGKEDAIWNLLRQAQEKFGKDKSPKFQLFGSPSGQKDLLFKDSAIGFSRVPPRIDSGLYLGSGYFTAIQNLRKSEEEVAARRARVVWCAVGEQELRKCNQWSGLSEGSVTCSSASTTEDCIALVLKGEADAMSLDGGYVYTAGKCGLVPVLAENYKSQQSSDPDPNCVDRPVEGYLAVAVVRRSDTSLTWNSVKGKKSCHTAVDRTAGWNIPMGLLFNQTGSCKFDEYFSQSCAPGSDPRSNLCALCIGDEQGENKCVPNSNERYYGYTGAFRCLAENAGDVAFVKDVTVLQNTDGNNNEAWAKDLKLADFALLCLDGKRKPVTEARSCHLAMAPNHAVVSRMDKVERLKQVLLHQQAKFGRNGSDCPDKFCLFQSETKNLLFNDNTECLARLHGKTTYEKYLGPQYVAGITNLKKCSTSPLLEACEFLRK
modifications: apo form
notes: control
[1]; 50 mM KCl, defensins at NPIC, hLf 1 μM, colistin 4 μg/mL
  effect of high extracellular K+ on pseudomonacidal activity: decreased
[1]; antimicrobial concentration (≤10% viable cells) that permeabilized ≤10% of cells, 10^6 cells/mL, Tris buffer pH 7.4, 90 min at 37 °C, from Figure 1 data, duplicates of three experiments
  non-permeabilizing inhibitory concentration (NPIC), P. aeruginosa: 1 µM
[1]; preincubated 15 min at 37 °C with 50 µM CCCP at pH 7.4, peptides at NPIC
  effect of CCCP on bactericidal activity, P. aeruginosa: slightly reduced
C. albicans cells [2]
  oxygen consumption percentage of C. albicans: 90% ± 3%
P. aeruginosa cells
  O2 consumption of P. aeruginosa: 87% ± 2%
C. albicans cells [3]
  increase in ATP levels compared to the untreated control: ~ 6 fold
Pma1p H^+-ATPase
  Inhibition of H^+-extrusion (yeast): Yes
